{
  "source": "paper PMC5339894",
  "about": "“G196 epitope tag system: a novel monoclonal antibody, G196, recognizes the small, soluble peptide DLVPR with high affinity” (Scientific Reports, 2017)",
  "molecules": {"B1": {"name": "G196 antigen binding fragment (Fab) (Fab, V domains shown)", "VH": "QVKLQESGAELVKPGASVKLSCKASGYTFTNYWMHWVKLRPGQGFEWIGEINPSNGGSNYNEKFKRKATLTVDKSSSTAYMQLSSLTSEDSAVFYCSIWDSYFDYWGQGTTLTVSS", "VL": "NIVMTQSPKSMSMSVGERVTLTCKASENVVTYVSWYQQKPEQSPKLLIYGASNRYTGVPDRFTGSGSATDFTLTISSVQAEDLADYHCGQGYSYPYTFGGGTKLEIK", "notes": "Fab part of the heavy chain of m1; chain in PDB 5H2B; as the light chain of m1; also called G196 Fab; G196 IgG Fab; source: purified mAb G196 IgG fragmented using papain, Fab purified by protein A chromatography"}},
  "key": {"mAb G196": {"test_system": "mAb G196", "test": "Western blot epitope mapping of bacterially expressed GST proteins with mAb G196", "format": "binding, mouse", "details": "purified or bacterially expressed GST proteins, SDS-PAGE, denaturing conditions", "experimental": "To confirm that the G196 epitope is located on the C-terminal extension of the 4T-2 fragment, and to further determine the precise location of the G196 mAb epitope, double-stranded oligonucleotides encoding peptides containing the C-terminal extension were inserted into the BamHI/EcoRI restriction sites within the pGEX-6P-1 vector. Total protein lysates were prepared from Escherichia coli that had been transformed with individual GST fusion protein constructs.\nAll short 4T-2 fragments were generated by annealing complementary oligos. The oligos used to synthesize the indicated fragments are summarized (Fasmac, Kanagawa, Japan) in Supplementary Table 2. Annealing reaction mixtures contained equimolar amounts of each oligo and the reactions were performed in a thermal cycler, with initial denaturation at 98 °C for 3 min, followed by a temperature decrease of 2 °C every 20 s down to 4 °C to allow the oligos to anneal slowly. The oligos contained the BamHI/EcoRI restriction sites and the 4T-2 fragments were cloned into these restriction sites within the pGEX-6P-1 vector (GE Healthcare, Buckinghamshire, England).\nA fragment of the GST gene, encoding residues 2–212, was prepared by polymerase chain reaction (PCR) amplification using the Pfu polymerase (BioAcademia) and the pGEX-6P-1 plasmid as the template. […]"}, "[1]": {"test_system": "anti-FLAG M2 mAb affinity column", "details": "mild pH (pH 3.5–4.4); cited from earlier work", "from_the_text": "Previously, we studied the subcellular localization of myocardin-related transcription factor (MRTF)-B, a shuttle protein between the nucleus and cytoplasm that is expressed in response to various stimuli."}, "[2]": {"biological_target": "T1, synthetic peptide GSDLVPRGS (synthetic)", "T1 construct": "source: synthetic peptide (Tufts University Core Facility)", "T1 chain": "GSDLVPRGS", "test": "ITC; VP-ITC, 25 C; cell: 25 uM G196 Fab in 20 mM Tris-HCl (pH 8.0), 150 mM NaCl; peptide (500 uM) injected; single-site model", "details": "both partners purified"}},
  "note": "Where no end group is shown, it is not given here.",
  "data": [
    {"molecule": "6P-12: GST fusion protein with C-terminal extension fragment inserted in pGEX-6P-1 ({GST}-SDLVPRGSP)", "values": [
      {"measurement": "recognition by mAb G196 in Western blot", "setting": "mAb G196", "result": "detected"}
    ]},
    {"molecule": "N=C(N)NCCC[C@H](N)C(=O)O", "note": "[Arg]", "values": [
      {"measurement": "dissociation of FLAG-tagged proteins from column", "setting": "[1]", "result": "effectively dissociate FLAG-tagged proteins"}
    ]},
    {"molecule": "B1", "values": [
      {"measurement": "Kd", "setting": "[2]", "result": "1.25 ± 0.77", "unit": "nM"},
      {"measurement": "dH", "setting": "[2]", "result": -15.3, "unit": "kcal/mol"},
      {"measurement": "stoichiometry N", "setting": "[2]", "result": "1.2 ± 0.05"}
    ]}
  ]
}
